Measured values taken from paper PMC6368300.

Molecular target: Pyruvate Kinase M2 (human) (UniProt P14618)
Experiment: SPR; Autolab SPR; PKM2 immobilised by NHS/EDC coupling; Histone H3 100 nM-1000 nM as analyte; 10 mM HEPES pH 7.4, 150 mM NaCl, 3 mM EDTA, 0.05% NP-40; 25°C; 1:1 Langmuir model, KD from the equilibrium equation; triplicate

Sequence of UniProt P14618 (P14618 whole entry): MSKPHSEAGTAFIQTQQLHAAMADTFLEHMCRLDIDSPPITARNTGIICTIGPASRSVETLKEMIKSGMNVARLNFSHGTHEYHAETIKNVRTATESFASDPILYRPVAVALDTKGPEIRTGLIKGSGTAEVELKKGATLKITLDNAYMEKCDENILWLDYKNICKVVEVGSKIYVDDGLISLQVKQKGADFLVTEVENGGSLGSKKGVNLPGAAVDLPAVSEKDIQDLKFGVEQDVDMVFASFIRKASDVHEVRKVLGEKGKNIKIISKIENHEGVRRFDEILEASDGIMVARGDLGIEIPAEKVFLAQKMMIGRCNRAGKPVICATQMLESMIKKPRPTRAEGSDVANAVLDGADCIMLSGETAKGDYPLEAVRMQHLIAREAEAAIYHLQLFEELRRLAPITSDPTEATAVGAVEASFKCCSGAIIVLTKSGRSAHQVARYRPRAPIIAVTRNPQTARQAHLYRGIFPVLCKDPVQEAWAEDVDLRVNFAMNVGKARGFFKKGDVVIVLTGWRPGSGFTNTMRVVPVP

Kd: 6.39 µM
Substance: Histone H3 (from UniProt P84233 1-136) (natural protein; other documents disagree on this pair)
